The record followed here is publication PMC2615621 (Nucleic Acids Research, 2008).

Like-named read-outs stand apart in the source and are kept apart here.

What all share (experiment): native gel or EMSA
On the technique in general: Mobility shift assays separate free from complexed probe on a gel.

In series [1] the target is …3 (SEP3), full-length, in vitro translated (Arabidopsis thaliana) (UniProt O22456).
The target is the same in series [2]. The source holds these as a separate data set.
Series [3] concerns the molecule itself.
Series [4] deals with the molecule itself. This is another data set of the same source.

As for “…3 (SEP3), full-length, in vitro translated (from UniProt O22456 1-251) (natural protein)”, in series [1], the apparent Kd1/Kd2 (cooperativity of two dimers on DNA) came out at 83 and the stoichiometry N amounted to 2. Also, the stoichiometry N in series [2] worked out at 4.

B1: SEP3ΔC, C-terminally truncated SEP3, in vitro translated (domain or fragment)
chain: MGRGRVELKRIENKINRQVTFAKRRNGLLKKAYELSVLCDAEVALIIFSNRGKLYEFCSSSSMLRTLERYQKCNYGAPEPNVPSREALAVELSSQQEYLKLKERYDALQRTQRNLLGEDLGPLSTKELESLERQLDSSLKQIRALRTQFMLDQLNDLQSKERMLTETNKTLRLRLADGYQMPLQLNPN
modifications: 35S-methionine in some experiments
Take B1: in “native gel or EMSA [3]”, the “stoichiometry N” value was found to be 2. Also, in the series “native gel or EMSA [4]”, the “apparent Kd1/Kd2 (cooperativity of two dimers on DNA)” value came to 89.

As a reminder, the stoichiometry N is the number of molecules, sites or subunits per partner or assembly.
